Experimental data published in article PMC8372783.

B1: 15mer, Texas Red (structured_DNA)
DNA: GGTTGGTGTGGTTGG
B2: 15mer Fl (FAM) (structured_DNA)
DNA: GGTTGGTGTGGTTGG

What was measured:
thrombin [1] = target: T1, thrombin (human, UniProt P00734;P00734 328-363;364-622); test: fluorescence anisotropy
thrombin [2] = target: T1, thrombin; test: fluorescence anisotropy; remark: listed apart in the source
thrombin [3] = target: T1, thrombin; test: fluorescence anisotropy; remark: listed apart in the source
thrombin [4] = target: T1, thrombin; test: fluorescence anisotropy; remark: listed apart in the source
thrombin [5] = target: T1, thrombin; test: affinity probe capillary electrophoresis
thrombin [6] = target: T1, thrombin; test: fluorescence anisotropy; remark: listed apart in the source
thrombin [7] = target: T1, thrombin; test: fluorescence anisotropy; remark: listed apart in the source
thrombin [8] = target: T1, thrombin; test: affinity probe capillary electrophoresis; remark: listed apart in the source
thrombin [9] = target: T1, thrombin; test: affinity probe capillary electrophoresis; remark: listed apart in the source

Binder | apparent K (half saturation) (thrombin [1]) [nM] | apparent K (half saturation) (thrombin [2]) [nM] | apparent K (half saturation) (thrombin [3]) [nM] | apparent K (half saturation) (thrombin [4]) [nM] | Kd (thrombin [5]) [nM] | apparent K (half saturation) (thrombin [6]) [nM] | apparent K (half saturation) (thrombin [7]) [nM] | apparent K (half saturation) (thrombin [8]) [nM] | apparent K (half saturation) (thrombin [9]) [nM]
B1 | 23.7 ± 1.1 | 51.8 ± 2.9 | 29.7 ± 1.1 | 25 ± 1.5 | 4.5 ± 1.4 | 27.3 ± 1.6 | 30.4 ± 2.6 | – | –
B2 | – | – | – | – | – | – | – | 60.9 ± 5.3 | 49.2 ± 1.2
